Laboratory results taken from IntAct's records for PubMed 18309292.

B1: Ras-related protein Rap-1b (Homo sapiens), P61224 (parent)
chain: MREYKLVVLGSGGVGKSALTVQFVQGIFVEKYDPTIEDSYRKQVEVDAQQCMLEILDTAGTEQFTAMRDLYMKNGQGFALVYSITAQSTFNDLQDLREQILRVKDTDDVPMILVGNKCDLEDERVVGKEQGQNLARQWNNCAFLESSAKSKINVNEIFYDLVRQINRKTPVPGKARKKSSCQLL

Variants of: B1
Conditions: with rpgp1_human RAP1GAP

effect of a mutation on the interaction | Variant
disrupting interaction | MREYKLVVLGSGGVGKSALTVQFVQGIFVEKYDPTIEDSYRKQVEVDAQQCMLEILDTAGTEQATAMRDLYMKNGQGFALVYSITAQSTFNDLQDLREQILRVKDTDDVPMILVGNKCDLEDERVVGKEQGQNLARQWNNCAFLESSAKSKINVNEIFYDLVRQINRKTPVPGKARKKSSCQLL [F64A]

Variants of: B1
Conditions: with rpgp1_human RAP1GAP
Remark: another data set of the same source

effect of a mutation on the interaction | Variant
disrupting interaction | MREYKLVVLGSGGVGKSALTVQFVQGIFVEKYDPTIEDSYRKQVEVDAQQCMLEILDTAGTEEFTAMRDLYMKNGQGFALVYSITAQSTFNDLQDLREQILRVKDTDDVPMILVGNKCDLEDERVVGKEQGQNLARQWNNCAFLESSAKSKINVNEIFYDLVRQINRKTPVPGKARKKSSCQLL [Q63E]
